Among the data in publication PMC3360035 are suppression of aggregation on dilution out of 5 M GdnHCl (from maximum A350), αB in 5-fold molar excess values, retold here.

This test has as its target Wild-type human γD-crystallin (human) (UniProt P07320).

Chain of Wild-type human γD-crystallin (human) (P07320 whole entry): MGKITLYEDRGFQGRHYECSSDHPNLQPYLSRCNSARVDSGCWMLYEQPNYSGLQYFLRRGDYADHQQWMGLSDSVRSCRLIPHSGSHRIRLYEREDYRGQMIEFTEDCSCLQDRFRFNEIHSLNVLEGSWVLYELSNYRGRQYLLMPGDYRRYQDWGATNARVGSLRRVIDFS

In turn, “αB-crystallin, wild type (from UniProt P02511 1-175) (natural protein)” registered a suppression of aggregation on dilution out of 5 M GdnHCl (from maximum A350), αB in 5-fold molar excess of 72%.
